Target: T1, ALCAM/MEMD/CD166 (human, UniProt Q13740 28-583)
T1 construct: whole, on cells; Endogenous antigen on Du-145 prostate cancer cells (FACS) and in lysates of surface-biotinylated Du-145 cells (IP and Western blot)
T1 sequence (looked up): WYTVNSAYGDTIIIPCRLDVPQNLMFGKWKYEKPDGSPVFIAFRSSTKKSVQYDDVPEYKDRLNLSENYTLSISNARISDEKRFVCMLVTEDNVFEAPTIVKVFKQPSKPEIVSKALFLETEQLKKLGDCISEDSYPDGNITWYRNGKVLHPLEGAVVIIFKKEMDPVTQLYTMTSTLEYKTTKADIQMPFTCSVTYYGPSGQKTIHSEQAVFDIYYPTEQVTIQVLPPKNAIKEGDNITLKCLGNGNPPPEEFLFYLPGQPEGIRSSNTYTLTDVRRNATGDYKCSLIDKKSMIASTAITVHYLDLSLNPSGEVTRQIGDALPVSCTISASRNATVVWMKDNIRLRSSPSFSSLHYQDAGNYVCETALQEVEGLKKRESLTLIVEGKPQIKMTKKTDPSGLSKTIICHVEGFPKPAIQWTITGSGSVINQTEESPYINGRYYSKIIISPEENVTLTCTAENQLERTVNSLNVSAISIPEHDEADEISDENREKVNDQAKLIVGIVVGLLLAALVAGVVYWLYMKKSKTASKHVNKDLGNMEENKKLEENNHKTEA
Experiment: FACS on Du-145 cells, equilibrium binding at 4 C overnight, apparent KD by curve fitting of MFI
Protocol: Monodispersed DU-145 cells were incubated with varying concentrations of IgG1s at 4° C. overnight to allow equilibrium binding. After washing, bound human IgG1 s were detected by R-phycoerythrin-conjugated goat anti-human secondary antibody and analyzed by FACS. Mean fluorescence intensity (MFI) values were plotted and the KD was determined by curve fitting using GraphPad (GraphPad Software, San Diego, Calif.).

- Kd: 4.4 pM
B1: anti-ALCAM IgG1 (585II41.1, also known as H3) (antibody, V domains shown)
VH: QVQLVESGGGLVQPGGSLRLSCAASGFTFSSYAMSWVRQAPGKGLEWVSAISGSGGSTYYADSVKGRFTISRDNSKDTLYLQMNSLRAEDTAVYYCASRSLLDYWGQGTLVTVSS
VL: NFMLTQDPAVSVALGQTVRITCQGDSLRSYYASWYQQKPGQAPLLVIYGKNNRPSGIPDRFSGSSSGNTASLTITGAQAEDEADYYCNSRDSSGNPVFGGGTKVTVL
notes: also called H3 IgG; H3 IgG1

— patent US20170233488A1 (University of California, published 2017)
